In IntAct's records for PubMed 11331308:

B1: Alpha-parvin (Homo sapiens), Q9NVD7 (parent)
chain: MATSPQKSPSVPKSPTPKSPPSRKKDDSFLGKLGGTLARRKKAKEVSELQEEGMNAINLPLSPIPFELDPEDTMLEENEVRTMVDPNSRSDPKLQELMKVLIDWINDVLVGERIIVKDLAEDLYDGQVLQKLFEKLESEKLNVAEVTQSEIAQKQKLQTVLEKINETLKLPPRSIKWNVDSVHAKSLVAILHLLVALSQYFRAPIRLPDHVSIQVVVVQKREGILQSRQIQEEITGNTEALSGRHERDAFDTLFDHAPDKLNVVKKTLITFVNKHLNKLNLEVTELETQFADGVYLVLLMGLLEGYFVPLHSFFLTPDSFEQKVLNVSFAFELMQDGGLEKPKPRPEDIVNCDLKSTLRVLYNLFTKYRNVE
partner: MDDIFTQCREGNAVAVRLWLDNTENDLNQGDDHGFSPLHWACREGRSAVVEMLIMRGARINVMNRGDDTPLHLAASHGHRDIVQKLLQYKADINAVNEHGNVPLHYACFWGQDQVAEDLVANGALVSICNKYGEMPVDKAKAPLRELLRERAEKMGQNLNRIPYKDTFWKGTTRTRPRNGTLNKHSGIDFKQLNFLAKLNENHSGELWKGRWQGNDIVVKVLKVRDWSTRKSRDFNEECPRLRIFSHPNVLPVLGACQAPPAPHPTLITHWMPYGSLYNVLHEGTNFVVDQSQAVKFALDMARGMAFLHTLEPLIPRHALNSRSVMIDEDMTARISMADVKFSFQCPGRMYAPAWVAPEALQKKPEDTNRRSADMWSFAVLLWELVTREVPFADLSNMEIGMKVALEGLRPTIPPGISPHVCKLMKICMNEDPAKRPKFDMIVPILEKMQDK

Variants of: B1
Conditions: with ilk_mouse Ilk

Row | effect of a mutation on the interaction | Variant
1 | disrupting interaction strength | F271D
